Assay results: patent US20240400715A1 (VIBRANT PHARMA, published 2024)
Where “and” joins values, the source holds several entries; their conditions need not be identical. Equal values may be shown once.

Key:
[1] = biological target: T1, human CD3 on Jurkat cells (human, UniProt P07766 23-207; P04234 22-171; P09693 23-182); experiment: FACS, Jurkat cells;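 also: flow cytometric binding of bispecific antibodies to Jurkat T cells, threefold serial dilutions incubated half an hour in the cold, EC50 taken from the fitted binding curve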
T1 construct: whole, on cells; CD3 complex as on Jurkat (Clone E6-1) cells; also called CD3 expressing cells (Jurkat)

[2] = biological target: T2, human CD3ε/δ (ACRO systems, CDD-H52W1) (human, UniProt P07766 23-126; P04234 22-105); experiment: BLI, antibody captured, antigen in solution;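 also: bispecific antibodies captured on AHIC biosensors to a 1.5 nm loading signal, in PBST with 0.02% detergent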
T2 construct: Bought protein; also called human CD3ϵ/CD3δ; human CD3 epsilon/delta antigen
Procedure: The bispecific antibodies were diluted to 5 ag/ml, and 1.5 nm protein was coupled to the surface of the AHIC sensor chip through 0.02% PBST.

| Binder | EC50 [1] | Kd [2] [nM] | koff [2] [s⁻¹] | kon [2] [M⁻¹ s⁻¹] |
| --- | --- | --- | --- | --- |
| 308 (TA3), configuration of FIG. 1X (bispecific antibody, IgG4, chains put together from parts; IgG4, kappa; not shown: kappa light chain constant domain (CL)) heavy: EVQLVESGGGLVQPGGSLRLSCAASGYSFTGYTMNWVRQAPGKGLEWVALINPYKGVSTYNQKFKDRFTISVDKSKNTAYLQMNSLRAEDTAVYYCARSGYYGDSDWYFDVWGQGTLVTVSSASTKGPSVFPLAPCSRSTSESTAALGCLVKDYFPEPVTVSWNSGALTSGVHTFPAVLQSSGLYSLSSVVTVPSSSLGTKTYTCNVDHKPSNTKVDKRVESKYGPPCPPCPAPEAAGGPSVFLFPPKPKDTLMISRTPEVTCVVVDVSQEDPEVQFNWYVDGVEVHNAKTKPREEQFNSTYRVVSVLTVLHQDWLNGKEYKCKVSNKGLPSSIEKTISKAKGQPREPQVYTLPPCQEEMTKNQVSLWCLVKGFYPSDIAVEWESNGQPENNYKTTPPVLDSDGSFFLYSRLTVDKSRWQEGNVFSCSVMHEALHNHYTQKSLSLSLGGGGSGGGGSEVQLVESGGGFVQAGESLTLSCTSSTLTFTPYRMAWYRQAPGKQRDLVADISSGDGRTTNYADFAKGRFTISRDNIKNTVFLRMTNLKPEDTAVYYCNTFVSFVGIARSWGQGTQVTVSS ESKYGPPCPPCPAPEAAGGPSVFLFPPKPKDTLMISRTPEVTCVVVDVSQEDPEVQFNWYVDGVEVHNAKTKPREEQFNSTYRVVSVLTVLHQDWLNGKEYKCKVSNKGLPSSIEKTISKAKGQPREPQVCTLPPSQEEMTKNQVSLSCAVKGFYPSDIAVEWESNGQPENNYKTTPPVLDSDGSFFLVSRLTVDKSRWQEGNVFSCSVMHEALHNRFTQKSLSLSL light: DIQMTQSPSSLSASVGDRVTITCRASQDIRNYLNWYQQKPGKAPKLLIYYTSRLESGVPSRFSGSGSGTDYTLTISSLQPEDFATYYCQQGNTLPWTFGQGTKVEIK | 4.59 µg/mL and 35.3 nM | 3.01 | 0.000997 | – |
| Fab (Light)-Knob+Fab (Heavy)-Hole-CEA (210) (bispecific antibody, human IgG4 S228P, kappa, F234A L235A, Two-chain format; human IgG4 knob-into-hole Fc; also called CEA-CD3 bispecific antibody 210) QAVVTQESALTTSPGETVTLTCRSSTGAVTTSNYANWVQEKPDHLFTGLIGGTNKRAPGVPARFSGSLIGDKAALTITGAQTEDEAIYFCALWYSNLWVFGGGTKVEIKRTVAAPSVFIFPPSDEQLKSGTASVVCLLNNFYPREAKVQWKVDNALQSGNSQESVTEQDSKDSTYSLSSTLTLSKADYEKHKVYACEVTHQGLSSPVTKSFNRGECESKYGPPCPPCPAPEAAGGPSVFLFPPKPKDTLMISRTPEVTCVVVDVSQEDPEVQFNWYVDGVEVHNAKTKPREEQFNSTYRVVSVLTVLHQDWLNGKEYKCKVSNKGLPSSIEKTISKAKGQPREPQVYTLPPCQEEMTKNQVSLWCLVKGFYPSDIAVEWESNGQPENNYKTTPPVLDSDGSFFLYSRLTVDKSRWQEGNVFSCSVMHEALHNHYTQKSLSLSL heavy: EVKLLESGGGLVQPKGSLKLSCAASGFTFNTYAMNWVRQAPGKGLEWVARIRSKYNNYATYYADSVKDRFTISRDDSQSILYLQMNNLKTEDTAMYYCVRHGNFGNSYVSWFAYWGQGTLVTVSSASTKGPSVFPLAPCSRSTSESTAALGCLVKDYFPEPVTVSWNSGALTSGVHTFPAVLQSSGLYSLSSVVTVPSSSLGTKTYTCNVDHKPSNTKVDKRVESKYGPPCPPCPAPEAAGGPSVFLFPPKPKDTLMISRTPEVTCVVVDVSQEDPEVQFNWYVDGVEVHNAKTKPREEQFNSTYRVVSVLTVLHQDWLNGKEYKCKVSNKGLPSSIEKTISKAKGQPREPQVCTLPPSQEEMTKNQVSLSCAVKGFYPSDIAVEWESNGQPENNYKTTPPVLDSDGSFFLVSRLTVDKSRWQEGNVFSCSVMHEALHNRFTQKSLSLSLGGGGSGGGGSEVQLVESGGGFVQAGESLTLSCTSSTLTFTPYRMAWYRQAPGKQRDLVADISSGDGRTTNYADFAKGRFTISRDNIKNTVFLRMTNLKPEDTAVYYCNTFVSFVGIARSWGQGTQVTVSS | 2.08 µg/mL and 16 nM | 2.83 | 0.000689 | 243000 |

Stronger by Kd [2], values ahead:

| EC50 [1] | Kd [2] [nM] | koff [2] [s⁻¹] | kon [2] [M⁻¹ s⁻¹] | Binder |
| --- | --- | --- | --- | --- |
| 7.6 µg/mL and 58.5 nM | 2.08 | 0.000694 | 333000 | Knob+CEA-Hole-Fab (111) (bispecific antibody, human IgG4 S228P, kappa, F234A L235A, Anti-CD3 TA1 Fab + anti-CEA VHH C17 on human IgG4 knob-into-hole Fc) ESKYGPPCPPCPAPEAAGGPSVFLFPPKPKDTLMISRTPEVTCVVVDVSQEDPEVQFNWYVDGVEVHNAKTKPREEQFNSTYRVVSVLTVLHQDWLNGKEYKCKVSNKGLPSSIEKTISKAKGQPREPQVYTLPPCQEEMTKNQVSLWCLVKGFYPSDIAVEWESNGQPENNYKTTPPVLDSDGSFFLYSRLTVDKSRWQEGNVFSCSVMHEALHNHYTQKSLSLSL heavy: EVQLVESGGGFVQAGESLTLSCTSSTLTFTPYRMAWYRQAPGKQRDLVADISSGDGRTTNYADFAKGRFTISRDNIKNTVFLRMTNLKPEDTAVYYCNTFVSFVGIARSWGQGTQVTVSSESKYGPPCPPCPAPEAAGGPSVFLFPPKPKDTLMISRTPEVTCVVVDVSQEDPEVQFNWYVDGVEVHNAKTKPREEQFNSTYRVVSVLTVLHQDWLNGKEYKCKVSNKGLPSSIEKTISKAKGQPREPQVCTLPPSQEEMTKNQVSLSCAVKGFYPSDIAVEWESNGQPENNYKTTPPVLDSDGSFFLVSRLTVDKSRWQEGNVFSCSVMHEALHNRFTQKSLSLSLGGGGSGGGGSEVKLLESGGGLVQPKGSLKLSCAASGFTFNTYAMNWVRQAPGKGLEWVARIRSKYNNYATYYADSVKDRFTISRDDSQSILYLQMNNLKTEDTAMYYCVRHGNFGNSYVSWFAYWGQGTLVTVSSASTKGPSVFPLAPCSRSTSESTAALGCLVKDYFPEPVTVSWNSGALTSGVHTFPAVLQSSGLYSLSSVVTVPSSSLGTKTYTCNVDHKPSNTKVDKRV light: QAVVTQESALTTSPGETVTLTCRSSTGAVTTSNYANWVQEKPDHLFTGLIGGTNKRAPGVPARFSGSLIGDKAALTITGAQTEDEAIYFCALWYSNLWVFGGGTKVEIKRTVAAPSVFIFPPSDEQLKSGTASVVCLLNNFYPREAKVQWKVDNALQSGNSQESVTEQDSKDSTYSLSSTLTLSKADYEKHKVYACEVTHQGLSSPVTKSFNRGEC |
| 12.1 µg/mL and 93 nM | 1.67 | 0.000485 | 291000 | Knob-Fab+Hole-CEA (109) (bispecific antibody, human IgG4 S228P, kappa, F234A L235A, Anti-CD3 TA1 Fab + anti-CEA VHH C17 on human IgG4 knob-into-hole Fc) heavy: ESKYGPPCPPCPAPEAAGGPSVFLFPPKPKDTLMISRTPEVTCVVVDVSQEDPEVQFNWYVDGVEVHNAKTKPREEQFNSTYRVVSVLTVLHQDWLNGKEYKCKVSNKGLPSSIEKTISKAKGQPREPQVYTLPPCQEEMTKNQVSLWCLVKGFYPSDIAVEWESNGQPENNYKTTPPVLDSDGSFFLYSRLTVDKSRWQEGNVFSCSVMHEALHNHYTQKSLSLSLGGGGSGGGGSEVKLLESGGGLVQPKGSLKLSCAASGFTFNTYAMNWVRQAPGKGLEWVARIRSKYNNYATYYADSVKDRFTISRDDSQSILYLQMNNLKTEDTAMYYCVRHGNFGNSYVSWFAYWGQGTLVTVSSASTKGPSVFPLAPCSRSTSESTAALGCLVKDYFPEPVTVSWNSGALTSGVHTFPAVLQSSGLYSLSSVVTVPSSSLGTKTYTCNVDHKPSNTKVDKRV ESKYGPPCPPCPAPEAAGGPSVFLFPPKPKDTLMISRTPEVTCVVVDVSQEDPEVQFNWYVDGVEVHNAKTKPREEQFNSTYRVVSVLTVLHQDWLNGKEYKCKVSNKGLPSSIEKTISKAKGQPREPQVCTLPPSQEEMTKNQVSLSCAVKGFYPSDIAVEWESNGQPENNYKTTPPVLDSDGSFFLVSRLTVDKSRWQEGNVFSCSVMHEALHNRFTQKSLSLSLGGGGSGGGGSEVQLVESGGGFVQAGESLTLSCTSSTLTFTPYRMAWYRQAPGKQRDLVADISSGDGRTTNYADFAKGRFTISRDNIKNTVFLRMTNLKPEDTAVYYCNTFVSFVGIARSWGQGTQVTVSS light: QAVVTQESALTTSPGETVTLTCRSSTGAVTTSNYANWVQEKPDHLFTGLIGGTNKRAPGVPARFSGSLIGDKAALTITGAQTEDEAIYFCALWYSNLWVFGGGTKVEIKRTVAAPSVFIFPPSDEQLKSGTASVVCLLNNFYPREAKVQWKVDNALQSGNSQESVTEQDSKDSTYSLSSTLTLSKADYEKHKVYACEVTHQGLSSPVTKSFNRGEC |
| 8.88 µg/mL and 68.3 nM | 1.98 | 0.000565 | 285000 | CEA-Knob+Hole-Fab (110) (bispecific antibody, human IgG4 S228P, kappa, F234A L235A, Anti-CD3 TA1 Fab + anti-CEA VHH C17 on human IgG4 knob-into-hole Fc; also called CEA-CD3 bispecific antibody 110) EVQLVESGGGFVQAGESLTLSCTSSTLTFTPYRMAWYRQAPGKQRDLVADISSGDGRTTNYADFAKGRFTISRDNIKNTVFLRMTNLKPEDTAVYYCNTFVSFVGIARSWGQGTQVTVSSESKYGPPCPPCPAPEAAGGPSVFLFPPKPKDTLMISRTPEVTCVVVDVSQEDPEVQFNWYVDGVEVHNAKTKPREEQFNSTYRVVSVLTVLHQDWLNGKEYKCKVSNKGLPSSIEKTISKAKGQPREPQVYTLPPCQEEMTKNQVSLWCLVKGFYPSDIAVEWESNGQPENNYKTTPPVLDSDGSFFLYSRLTVDKSRWQEGNVFSCSVMHEALHNHYTQKSLSLSL heavy: ESKYGPPCPPCPAPEAAGGPSVFLFPPKPKDTLMISRTPEVTCVVVDVSQEDPEVQFNWYVDGVEVHNAKTKPREEQFNSTYRVVSVLTVLHQDWLNGKEYKCKVSNKGLPSSIEKTISKAKGQPREPQVCTLPPSQEEMTKNQVSLSCAVKGFYPSDIAVEWESNGQPENNYKTTPPVLDSDGSFFLVSRLTVDKSRWQEGNVFSCSVMHEALHNRFTQKSLSLSLGGGGSGGGGSEVKLLESGGGLVQPKGSLKLSCAASGFTFNTYAMNWVRQAPGKGLEWVARIRSKYNNYATYYADSVKDRFTISRDDSQSILYLQMNNLKTEDTAMYYCVRHGNFGNSYVSWFAYWGQGTLVTVSSASTKGPSVFPLAPCSRSTSESTAALGCLVKDYFPEPVTVSWNSGALTSGVHTFPAVLQSSGLYSLSSVVTVPSSSLGTKTYTCNVDHKPSNTKVDKRV light: QAVVTQESALTTSPGETVTLTCRSSTGAVTTSNYANWVQEKPDHLFTGLIGGTNKRAPGVPARFSGSLIGDKAALTITGAQTEDEAIYFCALWYSNLWVFGGGTKVEIKRTVAAPSVFIFPPSDEQLKSGTASVVCLLNNFYPREAKVQWKVDNALQSGNSQESVTEQDSKDSTYSLSSTLTLSKADYEKHKVYACEVTHQGLSSPVTKSFNRGEC |
